Assay results taken from patent US20160362487A1 (Regeneron, published 2016).

Columns and labels:
[1] = target: T1, biotinylated hIL-33 protein (R&D systems, Cat #3625-IL/CF) (human, UniProt O95760 112-270, biotinylated (sites not given)); assay: competition ELISA, 30 pM biotin-hIL-33 on coated hST2-hFc
T1 construct: Same commercial protein as m21, biotin-labelled; also called biotin-hIL-33
T1 sequence (looked up): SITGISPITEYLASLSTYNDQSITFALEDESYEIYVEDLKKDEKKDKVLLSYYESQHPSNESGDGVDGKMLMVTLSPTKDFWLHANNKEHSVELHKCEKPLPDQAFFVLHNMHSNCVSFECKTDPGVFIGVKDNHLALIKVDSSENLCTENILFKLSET
Description: The ability of anti-IL-33 antibodies to block either human IL-33 (hIL-33) or cynomologus monkey IL-33 binding to the human ST2 receptor was measured using a competition sandwich ELISA. […] The antibody/IL-33 mixtures were incubated for 1 hour at room temperature before they were transferred to the hST2-hFc-coated microtiter plates. After incubating for 1 hour at room temperature, the wells were then washed, and plate-bound biotin-hIL-33 was detected with streptavidin conjugated with horse-radish peroxidase (HRP) (Thermo Scientific, Cat # N200), and plate-bound MfIL-33-6His was detected with a HRP conjugated anti-His monoclonal antibody (Qiagen, #34460). All samples were developed with a TMB solution (BD biosciences, #51-2607KC) to produce a colorimetric reaction and then quenched by acidification with 1M sulfuric acid before measuring absorbance at 450 nm on a Victor X5 plate reader. Data analysis was performed using a sigmoidal dose-response model within Prism™ software. […] Percent blockade was calculated as the ratio of the reduction in signal observed in the presence of antibody relative to the difference between the signal with IL-33 alone and background (signal from HRP-conjugated secondary antibody or streptavidin alone). The absorbance measured for the constant concentration of biotin-hIL-33 or MfIL-33-6His alone is defined as 0% blocking and the absorbance measured for no added IL-33 is defined as 100% blocking.

[2] = target: T2, human IL-33 (R&D Systems, #3625-IL-010/CF) (human, UniProt O95760 112-270); assay: cell-based or functional assay
T2 sequence (looked up): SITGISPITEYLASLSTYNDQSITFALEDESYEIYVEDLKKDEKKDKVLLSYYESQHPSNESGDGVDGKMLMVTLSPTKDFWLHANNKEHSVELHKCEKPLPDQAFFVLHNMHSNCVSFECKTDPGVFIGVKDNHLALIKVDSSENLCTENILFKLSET

[3] = target: T3, cynomolgus monkey IL-33 expressed with a C-terminal hexahistidine tag (cynomolgus monkey); assay: cell-based or functional assay
T3 chain: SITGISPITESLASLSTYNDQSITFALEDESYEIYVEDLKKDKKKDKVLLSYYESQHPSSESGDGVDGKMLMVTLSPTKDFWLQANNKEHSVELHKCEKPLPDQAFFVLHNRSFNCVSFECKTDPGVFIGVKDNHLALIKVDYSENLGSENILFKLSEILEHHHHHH

[4] = target: T3, cynomolgus monkey IL-33 expressed with …; assay: BLI; mAb-1 on captured MfIL-33-6His
Description: Binding competition between a panel of different anti-IL-33 monoclonal antibodies was determined using a real time, label-free bio-layer interferometry assay on an Octet® HTX biosensor (ForteBio, A Division of Pall Life Sciences). The experiment was performed at 25° C. using a buffer of 0.01M HEPES pH7.4, 0.15M NaCl, 3 mM EDTA, 0.05% v/v Surfactant Tween-20, and 0.1 mg/ml BSA (HBS-ET kinetics buffer) with the plate shaking at a speed of 1000 rpm. […] The antigen-captured biosensors were then saturated with a first anti-IL-33 monoclonal antibody (subsequently referred to as mAb-1) by immersion into wells containing 50 μg/mL solution of mAb-1 for 5 minutes. The biosensors were then dipped into wells containing a 50 μg/mL solution of a second anti-IL-33 monoclonal antibody (subsequently referred to as mAb-2) for 4 minutes. The biosensors were washed in HBS-ET kinetics buffer in between every step of the experiment. The real-time binding response was monitored during the experiment, and the maximum binding response for each binding step was recorded. The response of mAb-2 binding to MfIL-33-6His pre-complexed with mAb-1 was measured, and competitive/non-competitive behavior of different anti-IL-33 monoclonal antibodies with respect to each other was determined.

[5] = target: T2, human IL-33 (R&D Systems, …); assay: BLI; hIL-33 pre-mixed with mAb-2 Isotype control 1
Description: Binding competition between a panel of different anti-IL-33 monoclonal antibodies was determined using a real time, label-free bio-layer interferometry assay on an Octet® HTX biosensor (ForteBio, A Division of Pall Life Sciences). The experiment was performed at 25° C. using a buffer of 0.01M HEPES pH7.4, 0.15M NaCl, 0.05% v/v Surfactant Tween-20, and 0.1 mg/ml BSA (HBS-ET kinetics buffer) with the plate shaking at a speed of 1000 rpm. To assess whether two antibodies were able to compete with one another for binding to human IL-33, a pre-mix assay format was used where 100 nM of human IL-33 (R&D Systems; #3625-IL-010/CF) was pre-mixed with 500 nM of different anti-IL-33 monoclonal antibodies (subsequently referred to as mAb-2) for at least 2 hours prior to running the binding competition assay. […] Following the capture step, unoccupied anti-mouse Fc polyclonal antibody and anti-human Fc polyclonal antibody on the Octet biosensors were saturated by submerging them for 4 minutes into wells containing 200 μg/mL of a non-specific monoclonal antibody with a mouse Fc or with a human Fc, respectively. Finally, the Octet biosensors were immersed for 4 minutes into wells containing the pre-mixed samples of 100 nM of human IL-33 and 500 nM of mAb-2. At the end of each cycle, the non-covalently captured anti-IL-33 antibodies along with the bound pre-complex of human IL-33 and mAb-2 were removed from the biosensors using three alternate 20 second immersions into 10 mM HCl followed by submerging into HBS-ET kinetics buffer. The biosensors were washed in HBS-ET kinetics buffer in between every step of the experiment. The real-time binding response was monitored during the binding events, and the binding response (in units of nm) at the end of every step was recorded.

Binder	% Maximum blocking [1]	IC50 [1]	IC50, inhibition of 10 pM hIL-33 activation of HEK293/hST2/NFkB-luciferase cells [2]	IC50, inhibition of 5 pM MfIL-33-6His activation of HEK293/hST2/NFkB-luciferase cells [3]	mAb-1 Binding (nm) [4]	mAb-1 Binding to the Pre-complex of mAb-2 & hIL-33 [5]
H4H9676P (antibody, human IgG4, V domains shown, Human IgG4 Fc (H4H)) VH: EVQLVESGGGLVQPGGSLRLSCSASGFTFSSYAMNWVRQAPGKGLEWVTAISGSGGGTYYADSVKGRFTISRDNSKNSLFLQLNSLRAEDTAVYYCAKQTYTSSWYGGFDIWGQGTMVTVSS VL: DIQMTQSPSSVSASVGDRVTITCRASQGFSSWLAWYQQIPGKAPKLLIYAASRLQSGVPSRFRGSGSGTDFTLTISSLQPEDFATYYCQQANSFPLTFGGGTKVEIK	54%	0.46 nM	3.5e-11 M	8.4e-09 M	0.62 nm	0.11 nm
H1M9559N (antibody, mouse IgG1, V domains shown, Human variable domains, mouse IgG1 Fc (H1M)) VH: QVQLVESGGGVVQPGRSLRLSCAASGFTFSSYGMHWVRQAPGKGLEWVAVIWYDGRNKYYTDSVKGRFTISRDNSKNTLYLQMDSLRAEDTAVYYCARERYISSYYGGFDPWGQGALVTVSS VL: DIQMTQSPSSVSASVGDRVTITCRASQGISSWLAWYQQKPGKAPKVLIYAASSLQSGVPSRFSGSGSGTDFTLTISSLQPEDFATYYCQQANSFPFTFGPGTKLDIK	88%	0.14 nM	2e-09 M	4.9e-08 M	0.5 nm	0.06 nm
